Test results reported in publication PMC10683472, “Deep Learning-Driven Library Design for the De Novo Discovery of Bioactive Thiopeptides” (ACS Central Science, 2023).

Each sequence was assayed against T1, IRAK4 (Homo sapiens, UniProt Q9NWZ3) (assay: mRNA display affinity selection against IRAK4, NGS abundance). Details: IRAK4 selection pulldown (+); Top100 selection hits, NGS.
T1 sequence (Q9NWZ3 1-460): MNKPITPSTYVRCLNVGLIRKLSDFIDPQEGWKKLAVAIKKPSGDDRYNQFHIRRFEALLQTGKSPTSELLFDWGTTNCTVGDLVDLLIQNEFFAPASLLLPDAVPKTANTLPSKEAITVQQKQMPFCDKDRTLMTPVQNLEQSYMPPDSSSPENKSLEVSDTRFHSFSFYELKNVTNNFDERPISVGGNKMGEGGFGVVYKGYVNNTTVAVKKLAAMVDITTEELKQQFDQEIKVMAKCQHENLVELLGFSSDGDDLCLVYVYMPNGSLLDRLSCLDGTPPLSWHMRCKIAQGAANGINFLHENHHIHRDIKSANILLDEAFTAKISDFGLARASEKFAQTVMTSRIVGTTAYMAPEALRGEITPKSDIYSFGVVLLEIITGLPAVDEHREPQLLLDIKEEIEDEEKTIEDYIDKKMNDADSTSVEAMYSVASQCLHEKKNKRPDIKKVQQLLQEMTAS
Assay type: binding
Parameters: acids 1-460; NP_057207.2) was purchased from Carna Biosciences; purchased Carna Biosciences (Kobe, Japan)
In the case of ALLWRRRNYH, the Library fraction is reported as 0.0006 and the Raw reads is reported as 61.
AMLWKRRLWR showed a Library fraction of 0.0005 and a Raw reads of 57.
In the case of AMRWRNRCYK, the Library fraction is reported as 0.0001 and the Raw reads is reported as 14.
In the case of AMSLYWARRRPH, the Library fraction is reported as 0.0028 and the Raw reads is reported as 304.
With AQRWRQKCYK the Library fraction was 0.0002 and the Raw reads was 19.
With AQRWRRRCYH the Library fraction was 0.0008 and the Raw reads was 85.
Work on AQYWKRRLWR yielded a Library fraction of 0.0001 and a Raw reads of 9.
ARLWRRRIYQ gave a Library fraction of 0.0001 and a Raw reads of 11.
CQCWNRRNWT gave a Library fraction of 0.0003 and a Raw reads of 35.
With CQRWKRRCYM the Library fraction was 0.0007 and the Raw reads was 76.
Sequence GPILYNRRLFV has a Library fraction of 0.0002 and a Raw reads of 21.
Sequence GPLLWNTRIYC has a Library fraction of 0.0001 and a Raw reads of 14.
GPVIYNRRIYC was tested, and the Library fraction was 0.0001 and the Raw reads was 11.
MMLWKRRMYK gave a Library fraction of 0.0001 and a Raw reads of 15.
In the case of RILWRRRRYH, the Library fraction is reported as 0.0009 and the Raw reads is reported as 95.
RLCWKRRNWT showed a Library fraction of 0.0004 and a Raw reads of 47.
For RLFWKRRRYA, the Library fraction was 0.0004 and the Raw reads was 42.
In the case of RLLWKRRNYQ, the Library fraction is reported as 0.0002 and the Raw reads is reported as 25.
RLLWRRRNYA was tested, and the Library fraction was 0.0009 and the Raw reads was 98.
RMLWKRRMWH showed a Library fraction of 0.0011 and a Raw reads of 118.
RQRWRGRKYH was tested, and the Library fraction was 0.0001 and the Raw reads was 8.
With RTFWRRRRYH the Library fraction was 0.0004 and the Raw reads was 44.
Work on RTRWKCKMYH yielded a Library fraction of 0.0002 and a Raw reads of 20.
Sequence RTYWKRRCYA has a Library fraction of 0.0076 and a Raw reads of 814.
For RVLWKKRNYA, the Library fraction was 0.0004 and the Raw reads was 46.
With SIFWRRRIYK the Library fraction was 0.002 and the Raw reads was 228.
SILWKKHIYK was tested, and the Library fraction was 0.0035 and the Raw reads was 369.
For SILWKKRVWK, the Library fraction was 0.016 and the Raw reads was 1700.
SIMWKRRVFK gave a Library fraction of 0.0001 and a Raw reads of 9.
In the case of SIVWKRRIYR, the Library fraction is reported as 0.005 and the Raw reads is reported as 541.
SIYWKRRRYK was tested, and the Library fraction was 0.0001 and the Raw reads was 11.
Work on SLLWHRRIYC yielded a Library fraction of 0.0002 and a Raw reads of 19.
In the case of SLLWKKRMYK, the Library fraction is reported as 0.0009 and the Raw reads is reported as 95.
SLLWKQRVWK was tested, and the Library fraction was 0.005 and the Raw reads was 525.
In the case of SLLWKRRCYN, the Library fraction is reported as 0.0038 and the Raw reads is reported as 409.
For SLLWKRRICR, the Library fraction was 0.0006 and the Raw reads was 65.
SLLWKRRIMK was tested, and the Library fraction was 0.180 and the Raw reads was 19248.
In the case of SLLWKRRMMK, the Library fraction is reported as 0.0001 and the Raw reads is reported as 11.
Work on SLLWKRRVYC yielded a Library fraction of 0.0007 and a Raw reads of 78.
With SLLWKRRVYT the Library fraction was 0.0002 and the Raw reads was 17.
For SLLWRKRIYR, the Library fraction was 0.003 and the Raw reads was 312.
SLLWRRRVYK gave a Library fraction of 0.080 and a Raw reads of 8519.
Work on SLLYKRRIYK yielded a Library fraction of 0.044 and a Raw reads of 4704.
SLRWKNRNHK gave a Library fraction of 0.0006 and a Raw reads of 62.
In the case of SLYWKSRIWR, the Library fraction is reported as 0.0026 and the Raw reads is reported as 283.
SMLFKRRIYK showed a Library fraction of 0.211 and a Raw reads of 22521.
SMLFKRRIYR gave a Library fraction of 0.0001 and a Raw reads of 15.
SMLFKRRMYK showed a Library fraction of 0.0003 and a Raw reads of 27.
Work on SMLFKRRVYK yielded a Library fraction of 0.0001 and a Raw reads of 10.
Work on SMLWGRRIYR yielded a Library fraction of 0.0016 and a Raw reads of 168.
With SMLWKRKIWG the Library fraction was 0.0047 and the Raw reads was 498.
In the case of SMLWKRRICI, the Library fraction is reported as 0.0002 and the Raw reads is reported as 17.
In the case of SMLWRRRKYA, the Library fraction is reported as 0.0001 and the Raw reads is reported as 16.
Sequence SQLCHRRIYK has a Library fraction of 0.0001 and a Raw reads of 12.
SQLWNRRLYK showed a Library fraction of 0.0009 and a Raw reads of 93.
With SQLYKRRIWM the Library fraction was 0.0001 and the Raw reads was 9.
Work on SQLYKRRIYQ yielded a Library fraction of 0.0003 and a Raw reads of 37.
Work on SQRWRCRNYQ yielded a Library fraction of 0.0011 and a Raw reads of 116.
For SQRWRNRNYR, the Library fraction was 0.013 and the Raw reads was 1364.
In the case of SQRYKQRCYK, the Library fraction is reported as 0.0017 and the Raw reads is reported as 182.

Same assay, conditions: IRAK4 selection pulldown (-); Top100 selection hits, NGS
With ALLWRRRNYH the Library fraction was 0.00021 and the Raw reads was 28.
Work on AMLWKRRLWR yielded a Library fraction of 0.00051 and a Raw reads of 68.
Sequence AMSLYWARRRPH has a Library fraction of 0.00857 and a Raw reads of 1144.
Work on AQRWRRRCYH yielded a Library fraction of 0.00051 and a Raw reads of 68.
Sequence ARLWRRRIYQ has a Library fraction of 0.00049 and a Raw reads of 66.
Sequence CQCWNRRNWT has a Library fraction of 0.00037 and a Raw reads of 49.
Work on CQRIGRRNYS yielded a Library fraction of 0.0001 and a Raw reads of 14.
CQRWKRRCYM was tested, and the Library fraction was 0.00053 and the Raw reads was 71.
GMKRQFITWHWT showed a Library fraction of 7e-5 and a Raw reads of 10.
In the case of GPILYNRRLFV, the Library fraction is reported as 0.00014 and the Raw reads is reported as 19.
Work on GPVIYNRRIYC yielded a Library fraction of 0.00021 and a Raw reads of 28.
RILWRRRRYH gave a Library fraction of 0.00044 and a Raw reads of 59.
RLCWKRRNWT showed a Library fraction of 0.00044 and a Raw reads of 59.
Work on RLCYKRRNWQ yielded a Library fraction of 0.00013 and a Raw reads of 17.
RLFWKRRRYA showed a Library fraction of 0.00016 and a Raw reads of 21.
In the case of RLLWKHRLYA, the Library fraction is reported as 8e-5 and the Raw reads is reported as 11.
Sequence RLLWKRRNYQ has a Library fraction of 0.00025 and a Raw reads of 33.
RLLWRRRNYA showed a Library fraction of 0.00106 and a Raw reads of 142.
Sequence RMLWKRRMWH has a Library fraction of 0.00041 and a Raw reads of 55.
RQRWRGRKYH showed a Library fraction of 0.00011 and a Raw reads of 15.
Sequence RQRWRSRDYA has a Library fraction of 8e-5 and a Raw reads of 11.
Work on RTFWRRRRYH yielded a Library fraction of 0.00039 and a Raw reads of 52.
Work on RTYWKRRCYA yielded a Library fraction of 0.00332 and a Raw reads of 444.
With RVLWKKRNYA the Library fraction was 0.00019 and the Raw reads was 26.
SARWRRRNYS was tested, and the Library fraction was 0.00011 and the Raw reads was 15.
With SIFWRRRIYK the Library fraction was 0.00048 and the Raw reads was 64.
SILWKKHIYK was tested, and the Library fraction was 0.00093 and the Raw reads was 124.
In the case of SILWKKRVWK, the Library fraction is reported as 0.009 and the Raw reads is reported as 1218.
SIMWKRRVFK was tested, and the Library fraction was 8e-5 and the Raw reads was 11.
For SIVWKRRIYR, the Library fraction was 0.00216 and the Raw reads was 289.
In the case of SLLWKKRMYK, the Library fraction is reported as 0.00027 and the Raw reads is reported as 36.
In the case of SLLWKQRVWK, the Library fraction is reported as 0.00324 and the Raw reads is reported as 433.
In the case of SLLWKRRCYN, the Library fraction is reported as 0.00172 and the Raw reads is reported as 230.
For SLLWKRRICR, the Library fraction was 0.00016 and the Raw reads was 21.
SLLWKRRIMK gave a Library fraction of 0.066 and a Raw reads of 8762.
SLLWKRRVYC gave a Library fraction of 0.00057 and a Raw reads of 76.
In the case of SLLWKRRVYT, the Library fraction is reported as 0.0001 and the Raw reads is reported as 14.
SLLWRKRIYR gave a Library fraction of 0.00109 and a Raw reads of 146.
Sequence SLLWRRRVYK has a Library fraction of 0.046 and a Raw reads of 6174.
For SLLYKRRIYK, the Library fraction was 0.026 and the Raw reads was 3431.
SLRWKNRNHK showed a Library fraction of 0.00013 and a Raw reads of 17.
SLRWKRRIWS showed a Library fraction of 9e-5 and a Raw reads of 12.
For SLYWKSRIWR, the Library fraction was 0.00072 and the Raw reads was 96.
In the case of SMERKAITWLWT, the Library fraction is reported as 0.00019 and the Raw reads is reported as 25.
In the case of SMERQFITWHWT, the Library fraction is reported as 0.00013 and the Raw reads is reported as 17.
With SMHRRYITWRWT the Library fraction was 0.115 and the Raw reads was 15412.
Work on SMKRKFITWHWT yielded a Library fraction of 7e-5 and a Raw reads of 10.
For SMKRPFITWHWT, the Library fraction was 9e-5 and the Raw reads was 12.
For SMKRQFITRHWT, the Library fraction was 7e-5 and the Raw reads was 9.
SMKRQFITWHWT was tested, and the Library fraction was 0.376 and the Raw reads was 50248.
Work on SMKRQFITWRWT yielded a Library fraction of 0.00015 and a Raw reads of 20.
With SMKRQLITWHWT the Library fraction was 0.00037 and the Raw reads was 50.
SMKRRFITWHWT gave a Library fraction of 8e-5 and a Raw reads of 11.
For SMLFKRRIYK, the Library fraction was 0.165 and the Raw reads was 22079.
SMLFKRRMYK was tested, and the Library fraction was 0.00019 and the Raw reads was 26.
SMLWGRRIYR was tested, and the Library fraction was 0.00036 and the Raw reads was 48.
SMLWKRKIWG gave a Library fraction of 0.00177 and a Raw reads of 237.
Work on SMLWRRRKYA yielded a Library fraction of 7e-5 and a Raw reads of 10.
In the case of SMQRKTIHWKWT, the Library fraction is reported as 0.00109 and the Raw reads is reported as 145.
SMQRRVIKWTWA was tested, and the Library fraction was 0.00016 and the Raw reads was 21.
SMRRQFITWHWT showed a Library fraction of 9e-5 and a Raw reads of 12.
SQLWNRRLYK was tested, and the Library fraction was 0.00059 and the Raw reads was 79.
With SQLYKRRIYQ the Library fraction was 0.00027 and the Raw reads was 36.
Sequence SQRWRCRNYQ has a Library fraction of 0.002 and a Raw reads of 267.
SQRWRNRNYR showed a Library fraction of 0.010 and a Raw reads of 1401.
Work on SQRYKQRCYK yielded a Library fraction of 0.0012 and a Raw reads of 160.
